T1: human EphA3 (Homo sapiens, UniProt P29320)
T1 construct: a protein of the extracellular region of each human Eph receptor fused with the SEAP protein and the His tag; made in house; host or cells: Expi293F cells (culture supernatant)
T1 sequence (P29320 21-541 limits assumed): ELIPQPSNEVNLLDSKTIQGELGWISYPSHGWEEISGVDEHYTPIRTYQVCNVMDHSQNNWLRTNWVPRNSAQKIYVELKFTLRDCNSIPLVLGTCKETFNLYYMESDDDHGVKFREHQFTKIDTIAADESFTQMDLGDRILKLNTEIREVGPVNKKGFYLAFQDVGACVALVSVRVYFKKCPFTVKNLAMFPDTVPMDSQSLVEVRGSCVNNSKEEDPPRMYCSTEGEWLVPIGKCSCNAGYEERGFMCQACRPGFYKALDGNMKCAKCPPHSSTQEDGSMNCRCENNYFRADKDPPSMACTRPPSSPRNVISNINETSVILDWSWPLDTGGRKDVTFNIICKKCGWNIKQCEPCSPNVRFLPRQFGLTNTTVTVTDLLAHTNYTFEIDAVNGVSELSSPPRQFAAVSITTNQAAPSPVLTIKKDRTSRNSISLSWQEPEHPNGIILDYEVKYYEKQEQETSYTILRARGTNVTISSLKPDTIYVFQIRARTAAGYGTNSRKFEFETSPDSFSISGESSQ

T2: human EphB2 (Homo sapiens, UniProt P29323)
T2 construct: a protein of the extracellular region of each human Eph receptor fused with the SEAP protein and the His tag; made in house; host or cells: Expi293F cells
T2 sequence (P29323 19-543 limits assumed): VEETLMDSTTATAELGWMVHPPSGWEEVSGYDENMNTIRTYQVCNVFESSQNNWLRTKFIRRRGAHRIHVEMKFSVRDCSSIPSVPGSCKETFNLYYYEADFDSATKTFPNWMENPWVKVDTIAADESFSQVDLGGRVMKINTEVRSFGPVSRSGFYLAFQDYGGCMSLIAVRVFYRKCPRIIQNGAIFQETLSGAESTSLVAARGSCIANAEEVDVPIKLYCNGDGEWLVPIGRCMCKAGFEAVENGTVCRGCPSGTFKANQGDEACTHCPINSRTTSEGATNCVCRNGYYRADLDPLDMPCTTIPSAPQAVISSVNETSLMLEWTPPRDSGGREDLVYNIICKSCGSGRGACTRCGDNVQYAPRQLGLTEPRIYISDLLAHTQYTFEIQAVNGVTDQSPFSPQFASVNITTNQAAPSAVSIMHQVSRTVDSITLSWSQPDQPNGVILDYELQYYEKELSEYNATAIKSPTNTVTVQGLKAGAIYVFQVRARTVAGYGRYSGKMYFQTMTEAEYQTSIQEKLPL

T3: human EphB3 (Homo sapiens, UniProt P54753)
T3 construct: a protein of the extracellular region of each human Eph receptor fused with the SEAP protein and the His tag; made in house; host or cells: Expi293F cells
T3 sequence (P54753 34-559 limits assumed): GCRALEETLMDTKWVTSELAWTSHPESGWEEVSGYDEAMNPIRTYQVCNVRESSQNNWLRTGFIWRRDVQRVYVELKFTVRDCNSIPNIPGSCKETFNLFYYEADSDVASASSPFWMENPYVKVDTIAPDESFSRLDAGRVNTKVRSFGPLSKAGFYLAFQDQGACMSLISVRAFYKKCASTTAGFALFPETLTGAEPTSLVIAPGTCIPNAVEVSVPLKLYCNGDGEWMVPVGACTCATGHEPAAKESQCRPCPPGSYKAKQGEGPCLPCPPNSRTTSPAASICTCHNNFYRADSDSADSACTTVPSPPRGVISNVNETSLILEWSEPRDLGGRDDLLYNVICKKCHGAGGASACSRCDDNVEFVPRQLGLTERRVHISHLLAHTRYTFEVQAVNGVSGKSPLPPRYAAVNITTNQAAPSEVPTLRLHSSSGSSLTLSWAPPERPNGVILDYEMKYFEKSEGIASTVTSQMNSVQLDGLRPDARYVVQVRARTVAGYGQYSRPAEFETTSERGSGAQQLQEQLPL


Tests used:
Experiment in all cases: Selectivity ELISA of humanized antibodies for human Eph receptor
Assay type in all cases: binding
Conditions in all cases: coated protein 1 nM
SEAP-His = SEAP-His (Homo sapiens, UniProt P05187)
Chain of SEAP-His (P05187 23-511 limits assumed): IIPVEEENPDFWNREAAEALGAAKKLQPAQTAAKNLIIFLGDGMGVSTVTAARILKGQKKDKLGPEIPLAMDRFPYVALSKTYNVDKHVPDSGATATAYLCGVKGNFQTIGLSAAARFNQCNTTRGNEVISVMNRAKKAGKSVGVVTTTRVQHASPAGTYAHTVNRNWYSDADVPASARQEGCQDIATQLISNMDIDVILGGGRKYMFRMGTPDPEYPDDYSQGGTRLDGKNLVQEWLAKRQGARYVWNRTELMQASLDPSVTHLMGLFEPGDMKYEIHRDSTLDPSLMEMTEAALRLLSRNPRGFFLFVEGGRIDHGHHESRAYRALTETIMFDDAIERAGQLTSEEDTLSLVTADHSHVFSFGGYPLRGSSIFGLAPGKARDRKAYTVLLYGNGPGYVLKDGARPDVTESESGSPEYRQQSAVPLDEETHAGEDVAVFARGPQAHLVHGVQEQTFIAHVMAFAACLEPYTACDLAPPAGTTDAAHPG
Outline: (§1)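 Capture ELISA: anti-6-His coat, 1% BlockAce block, Eph ECD-SEAP-His (1 nM final, Expi293F supernatant) 1 h RT, humanized Ab 1 h RT, HRP anti-IgG 1 h RT, TMB, H2SO4 stop, A450.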

human EphA3 = target: T1, human EphA3
Outline: as §1

human EphB2 = target: T2, human EphB2
Outline: as §1

human EphB3 = target: T3, human EphB3
Outline: as §1

SEAP-His: absorbance at 450 nm, percentage with respect to hEphA4-SEAP-His as 100% (SEAP-His) [%] | hEphA3-SEAP-: absorbance at 450 nm, percentage with respect to hEphA4-SEAP-His as 100% (human EphA3) [%] | hEphB2-SEAP-: absorbance at 450 nm, percentage with respect to hEphA4-SEAP-His as 100% (human EphB2) [%] | hEphB3-SEAP-: absorbance at 450 nm, percentage with respect to hEphA4-SEAP-His as 100% (human EphB3) [%] | Molecule
5.5 | 5.5 | 5.4 | 5.5 | 87 (antibody, V domains shown, constant regions without entry; synthetic humanized antibody light chain variable region sequence; synthetic humanized antibody heavy chain variable region sequence) VL: DIQMTQSPSSLSASVGDRVTITCRASENIYRNLAWYQQKPGKAPQLLLYAATNLADGVPSRFSGSGSGTDYTLTISSLQPEDFATYYCQHFWGTPWTFGQGTKVEIK VH: QVQLVQSGSELKKPGASVKVSCKASGYTFTDYSMHWVRQAPGQGLEWMGWINTETGEPTYAQGFTGRFVFSLDTSVSTAYLQISSLKAEDTAVYYCARIPLYYYGSRYWYFDVWGQGTTVTVSS
6.4 | 6.6 | 7.0 | 7.0 | 91 (antibody, V domains shown, constant regions without entry; synthetic humanized antibody light chain variable region sequence; synthetic humanized antibody heavy chain variable region sequence) VL: DIQMTQSPSSLSASVGDRVTITCRASENIYRNLAWYQQKPGKAPQLLLYAATNLADGVPSRFSGSGSGTDYTLTISSLQPEDFATYYCQHFWGTPWTFGQGTKVEIK VH: QVQLVQSGSELKKPGASVKVSCKASGYTFTDYSMHWVRQAPGQGLKWMGWINTETGEPTYADDFKGRFVFSLDTSVSTAYLQISSLKAEDTAVYYCARIPLYYYGSRYWYFDVWGQGTTVTVSS
6.1 | 6.0 | 6.0 | 6.3 | 88 (antibody, V domains shown, constant regions without entry; synthetic humanized antibody light chain variable region sequence; synthetic humanized antibody heavy chain variable region sequence) VL: DIQMTQSPSSLSASVGDRVTITCRASENIYRNLAWYQQKPGKAPQLLLYAATNLADGVPSRFSGSGSGTDYTLTISSLQPEDFATYYCQHFWGTPWTFGQGTKVEIK VH: QVQLVQSGSELKKPGASVKVSCKASGYTFTDYSMHWVRQAPGQGLKWMGWINTETGEPTYAQGFTGRFVFSLDTSVSTAYLQISSLKAEDTAVYYCARIPLYYYGSRYWYFDVWGQGTTVTVSS
5.8 | 5.8 | 5.7 | 5.7 | 89 (antibody, V domains shown, constant regions without entry; synthetic humanized antibody light chain variable region sequence; synthetic humanized antibody heavy chain variable region sequence) VL: DIQMTQSPSSLSASVGDRVTITCRASENIYRNLAWYQQKPGKAPQLLLYAATNLADGVPSRFSGSGSGTDYTLTISSLQPEDFATYYCQHFWGTPWTFGQGTKVEIK VH: QIQLVQSGSELKKPGASVKVSCKASGYTFTDYSMHWVRQAPGQGLKWMGWINTETGEPTYAQGFTGRFVFSLDTSVSTAYLQISSLKAEDTAVYYCARIPLYYYGSRYWYFDVWGQGTTVTVSS
5.2 | 5.2 | 5.9 | 5.1 | 90 (antibody, V domains shown, constant regions without entry; synthetic humanized antibody light chain variable region sequence; synthetic humanized antibody heavy chain variable region sequence) VL: DIQMTQSPSSLSASVGDRVTITCRASENIYRNLAWYQQKPGKAPQLLLYAATNLADGVPSRFSGSGSGTDYTLTISSLQPEDFATYYCQHFWGTPWTFGQGTKVEIK VH: QVQLVQSGSELKKPGASVKVSCKASGYTFTDYSMHWVRQAPGQGLEWMGWINTETGEPTYADDFKGRFVFSLDTSVSTAYLQISSLKAEDTAVYYCARIPLYYYGSRYWYFDVWGQGTTVTVSS
6.5 | 6.5 | 6.6 | 6.9 | 92 (antibody, V domains shown, constant regions without entry; synthetic humanized antibody light chain variable region sequence; synthetic humanized antibody heavy chain variable region sequence) VL: DIQMTQSPSSLSASVGDRVTITCRASENIYRNLAWYQQKPGKAPQLLLYAATNLADGVPSRFSGSGSGTDYTLTISSLQPEDFATYYCQHFWGTPWTFGQGTKVEIK VH: QIQLVQSGSELKKPGASVKVSCKASGYTFTDYSMHWVRQAPGQGLKWMGWINTETGEPTYADDFKGRFVFSLDTSVSTAYLQISSLKAEDTAVYYCARIPLYYYGSRYWYFDVWGQGTTVTVSS
5.0 | 5.1 | 5.0 | 5.1 | 93 (antibody, V domains shown, constant regions without entry; synthetic humanized antibody light chain variable region sequence; synthetic humanized antibody heavy chain variable region sequence) VL: EIVMTQSPATLSVSPGERATLSCRASENIYRNLAWYQQKPGQSPRLLIYAATNLADGIPARFSGSGSGTEYTLTISSLQSEDFAVYYCQHFWGTPWTFGQGTKVEIK VH: QVQLVQSGSELKKPGASVKVSCKASGYTFTDYSMHWVRQAPGQGLEWMGWINTETGEPTYAQGFTGRFVFSLDTSVSTAYLQISSLKAEDTAVYYCARIPLYYYGSRYWYFDVWGQGTTVTVSS

Source: patent US10428140B2, “Anti-EphA4 antibody” (EISAI R&D MANAGEMENT CO., LTD., priority 2015, dated 2019)
